Laboratory results reported in the supplement of paper PMC11136658.

Test system: peptide library, one residue held at a place counted from the Y acceptor
Assay: relative phosphorylation of the sub-library (ratio to the mean residue at this position); higher = residue favoured
Outline: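 Purified recombinant kinases were incubated for 90 min in 384-well plates with biotinylated Tyr-centred peptide library mixtures, each fixing one residue at one position from −5 to +5, plus 50 μM ATP with γ-32P-ATP. Peptides were captured on streptavidin membranes, rinsed and quantified by phosphorimaging and ImageQuant. Intensities were normalized per position by the sum of the 18 (or 16, Ser/Thr-free library) randomized residues and multiplied by that number. Values give phosphorylation relative to the mean randomized residue.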

Chain of PKMYT1, construct: Full length, human (Q99640 whole entry, looked up): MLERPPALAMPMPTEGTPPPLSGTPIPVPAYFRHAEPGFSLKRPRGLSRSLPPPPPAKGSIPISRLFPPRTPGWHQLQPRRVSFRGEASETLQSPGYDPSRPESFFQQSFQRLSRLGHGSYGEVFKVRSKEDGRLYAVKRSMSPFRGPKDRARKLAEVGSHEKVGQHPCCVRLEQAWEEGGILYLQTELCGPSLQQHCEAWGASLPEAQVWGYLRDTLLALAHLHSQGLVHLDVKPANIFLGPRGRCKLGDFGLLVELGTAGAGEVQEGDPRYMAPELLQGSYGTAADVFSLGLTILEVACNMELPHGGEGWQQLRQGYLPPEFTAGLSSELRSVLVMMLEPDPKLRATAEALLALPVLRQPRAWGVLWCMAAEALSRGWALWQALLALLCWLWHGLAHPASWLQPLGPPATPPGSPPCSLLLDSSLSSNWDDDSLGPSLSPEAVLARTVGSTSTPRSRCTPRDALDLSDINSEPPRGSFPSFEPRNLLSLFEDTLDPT
Chain of PTK2, construct: Full length, human (Q05397 whole entry, looked up): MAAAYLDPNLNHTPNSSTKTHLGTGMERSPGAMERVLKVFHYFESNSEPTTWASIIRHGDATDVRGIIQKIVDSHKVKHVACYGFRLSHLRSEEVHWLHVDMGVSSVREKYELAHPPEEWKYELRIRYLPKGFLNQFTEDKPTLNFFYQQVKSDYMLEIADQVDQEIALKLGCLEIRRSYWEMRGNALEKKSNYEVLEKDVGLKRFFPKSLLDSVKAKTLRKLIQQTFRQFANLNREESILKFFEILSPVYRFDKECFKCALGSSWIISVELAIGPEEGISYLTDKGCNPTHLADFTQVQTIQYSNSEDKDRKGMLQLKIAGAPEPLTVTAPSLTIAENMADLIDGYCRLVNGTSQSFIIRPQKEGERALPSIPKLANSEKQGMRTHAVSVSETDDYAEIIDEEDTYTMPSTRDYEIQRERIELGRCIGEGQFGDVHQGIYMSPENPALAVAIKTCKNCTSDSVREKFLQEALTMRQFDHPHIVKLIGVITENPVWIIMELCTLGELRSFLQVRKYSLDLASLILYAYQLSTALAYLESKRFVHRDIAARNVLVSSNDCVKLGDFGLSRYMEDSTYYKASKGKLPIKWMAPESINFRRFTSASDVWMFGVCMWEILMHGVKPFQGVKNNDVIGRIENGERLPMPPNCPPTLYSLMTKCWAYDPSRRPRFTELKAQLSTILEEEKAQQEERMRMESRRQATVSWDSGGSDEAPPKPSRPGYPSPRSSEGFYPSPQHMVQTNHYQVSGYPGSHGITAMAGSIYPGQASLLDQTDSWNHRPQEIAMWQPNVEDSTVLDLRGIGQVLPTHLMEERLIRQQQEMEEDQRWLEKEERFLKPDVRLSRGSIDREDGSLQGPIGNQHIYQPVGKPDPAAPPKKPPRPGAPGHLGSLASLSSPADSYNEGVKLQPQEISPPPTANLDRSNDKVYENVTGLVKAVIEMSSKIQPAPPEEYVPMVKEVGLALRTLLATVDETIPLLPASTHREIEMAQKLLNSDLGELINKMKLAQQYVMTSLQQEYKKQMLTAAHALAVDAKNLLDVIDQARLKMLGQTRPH
Chain of PDHK3, construct: Full length, human (Q15120 whole entry, looked up): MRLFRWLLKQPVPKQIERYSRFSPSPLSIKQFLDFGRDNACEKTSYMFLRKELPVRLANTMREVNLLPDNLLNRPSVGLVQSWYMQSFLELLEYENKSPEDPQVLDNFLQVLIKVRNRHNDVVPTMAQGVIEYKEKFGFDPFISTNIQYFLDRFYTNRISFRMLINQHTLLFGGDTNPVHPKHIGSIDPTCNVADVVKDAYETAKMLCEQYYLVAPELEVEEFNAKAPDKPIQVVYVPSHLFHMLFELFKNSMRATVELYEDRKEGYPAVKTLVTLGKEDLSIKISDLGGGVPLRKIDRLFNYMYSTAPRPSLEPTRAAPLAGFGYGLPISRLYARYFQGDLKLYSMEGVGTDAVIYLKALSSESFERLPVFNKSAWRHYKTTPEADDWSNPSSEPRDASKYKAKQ

PDHK3, construct: Full length, human (from UniProt Q15120)
relative phosphorylation
Settings	at +1	at +2	at +3	at +4	at +5	at -1	at -2	at -3	at -4	at -5
A fixed	0.864	0.935	0.907	1.15	0.809	0.955	1.04	0.965	1.15	1.1
D fixed	1.32	1.44	1.3	1.46	1.44	1.19	1.1	1.17	1.1	1.09
E fixed	1.1	1.02	1.32	1.46	1.23	0.907	1.02	0.781	0.943	0.994
F fixed	0.733	0.957	0.902	0.883	0.884	0.734	0.863	0.82	0.811	0.999
G fixed	1.14	0.947	1.11	1.06	1.09	1.03	1.07	1.24	1.33	1.12
H fixed	0.976	1.03	0.971	1.07	0.992	0.908	0.901	0.76	0.958	1.06
I fixed	0.74	0.721	0.875	0.87	0.766	0.781	0.793	0.67	0.826	0.874
K fixed	1.02	0.994	0.862	0.886	0.842	1.22	1.15	1.17	1	1.09
L fixed	0.876	0.878	0.869	1.03	0.886	0.906	1.12	1	0.9	0.95
M fixed	0.895	0.784	1.03	0.855	0.873	0.765	0.875	0.745	0.843	0.779
N fixed	1.18	1.01	0.955	0.877	0.944	1.04	0.912	0.933	0.986	0.897
P fixed	1.15	1.14	0.994	1.09	1.01	1.26	1.39	1.71	1.09	1.08
Q fixed	1.1	0.957	0.916	0.855	0.986	1.08	0.825	1.04	0.995	0.978
R fixed	1.09	0.889	0.906	0.714	0.926	1.09	1.02	1.01	1.18	0.997
V fixed	0.722	0.908	0.836	0.781	0.778	0.898	0.911	0.885	0.827	0.844
W fixed	1.1	1.39	1.26	0.97	1.54	1.24	1.03	1.09	1.07	1.15
pThr fixed	1.23	1.1	1.23	1.5	1.23	1.05	0.926	1.01	0.884	0.839
pTyr fixed	1.22	1.04	1.01	1.05	1.42	0.948	0.814	0.789	0.694	0.754

PINK1, construct: Full length, Tribolium castaneum (from UniProt D6WMX4)
relative phosphorylation
Settings	at +1	at +2	at +3	at +4	at +5	at -1	at -2	at -3	at -4	at -5
A fixed	0.901	0.835	0.881	0.879	0.893	0.907	0.869	0.893	0.948	0.916
D fixed	0.823	0.834	0.831	0.914	0.84	0.931	0.892	0.906	1.05	1.09
E fixed	0.789	0.792	0.875	0.938	0.813	1.22	0.916	0.938	1.42	1.04
F fixed	1.43	1.12	1.08	1.07	1.05	1.17	1.11	0.986	1.1	0.984
G fixed	0.902	0.767	0.78	0.909	0.88	1.15	0.931	0.838	0.884	0.936
H fixed	1.23	1.15	1.07	1.1	1.07	0.97	1.05	1.08	1.01	1.09
I fixed	0.847	0.804	0.852	0.84	0.832	1	0.922	0.781	0.868	0.888
K fixed	0.937	1.59	1.31	1.32	1.31	1	1.13	1.2	1.03	1.18
L fixed	0.737	0.831	0.881	0.882	0.876	0.814	0.889	0.862	0.793	0.82
M fixed	0.762	1.01	0.959	0.869	0.891	0.819	0.824	0.849	0.798	0.85
N fixed	0.936	1	0.91	0.954	1.02	0.948	1.21	0.981	0.871	0.893
P fixed	0.778	0.786	0.909	0.885	0.876	0.911	0.843	0.851	0.828	0.911
Q fixed	0.862	0.989	0.973	0.99	1.02	0.998	0.996	1.09	0.934	0.887
R fixed	1.16	1.71	1.61	1.57	1.68	1.3	1.36	1.82	1.35	1.35
V fixed	0.784	0.805	0.857	0.797	0.816	0.853	0.911	0.819	0.817	0.874
W fixed	2.12	0.972	1.23	1.09	1.15	1	1.14	1.11	1.31	1.29
pThr fixed	0.939	0.843	0.735	0.99	0.826	1.29	0.841	1.06	1.04	1.06
pTyr fixed	1.3	0.83	0.872	1.26	0.978	1.25	0.995	1.2	1.16	1.11

PKMYT1, construct: Full length, human (from UniProt Q99640)
relative phosphorylation
Settings	at +1	at +2	at +3	at +4	at +5	at -1	at -2	at -3	at -4	at -5
A fixed	0.864	0.982	0.813	1.11	0.947	1.04	1.05	1.2	1.2	1.16
D fixed	0.69	0.754	0.728	0.889	0.933	0.756	0.814	0.784	0.792	0.741
E fixed	0.834	0.775	0.66	0.833	0.979	0.845	0.915	0.837	0.84	0.772
F fixed	0.794	1.12	1.55	1.01	1.03	0.72	1.01	1.09	1.06	1.18
G fixed	1.64	1.08	1.01	1.18	1.03	2.03	1.4	1.14	1.27	0.902
H fixed	0.813	0.945	0.911	1.11	1.13	0.945	1.14	1.06	1.01	1.15
I fixed	1.29	1.03	1.24	1.1	1	0.863	1.09	0.996	0.901	1.02
K fixed	1	1.32	0.831	1.09	1	1.02	0.978	0.943	1.03	1.2
L fixed	0.691	0.935	0.973	0.928	0.912	0.705	0.791	0.867	0.758	0.886
M fixed	0.837	0.935	0.988	0.966	0.936	0.751	0.897	0.883	0.875	0.908
N fixed	0.774	0.873	0.728	0.785	0.905	0.834	0.982	0.93	0.87	0.885
P fixed	1.35	1.14	1.09	0.925	1.02	1.45	1	1.11	1.14	0.842
Q fixed	0.865	0.821	0.667	0.787	0.853	0.828	0.777	0.867	0.928	0.855
R fixed	1.18	1.25	0.938	1.12	1.29	1.18	1.08	1.23	1.26	1.31
V fixed	1.39	1.07	0.967	0.998	0.918	1.01	1.09	1.04	0.936	0.928
W fixed	0.992	0.962	1.92	1.16	1.12	1.02	0.995	1.02	1.15	1.26
pThr fixed	0.868	0.729	0.691	0.838	0.635	1.04	0.974	0.888	0.912	0.719
pTyr fixed	0.831	0.87	0.7	0.883	0.789	1.83	0.974	1.05	0.841	0.849

PTK2, construct: Full length, human (from UniProt Q05397)
relative phosphorylation
Settings	at +1	at +2	at +3	at +4	at +5	at -1	at -2	at -3	at -4	at -5
A fixed	1.98	0.732	0.861	0.842	1.02	0.632	1.05	0.673	0.936	0.931
D fixed	1.73	1.7	0.677	0.971	1.21	5.68	1.57	1.78	1.51	1.39
E fixed	1.85	2.34	0.705	1.19	1.23	1.38	1.77	2.18	1.61	1.37
F fixed	0.794	1.18	1.29	0.961	0.944	0.654	0.858	1.06	1.21	1.02
G fixed	1.09	0.625	0.731	1.14	1.21	0.575	1.03	0.851	1.08	1.1
H fixed	0.724	0.825	0.752	1.17	0.86	0.57	0.801	1.42	0.891	0.935
I fixed	0.99	1.13	2.19	0.964	0.811	1.17	0.839	0.757	0.968	1.11
K fixed	0.526	0.574	0.561	0.743	0.656	0.508	0.688	0.702	0.708	0.806
L fixed	0.66	0.909	1.58	0.792	0.933	0.784	0.814	0.801	1.08	1.04
M fixed	0.833	0.912	1.03	1.04	0.9	0.637	0.76	1.16	0.859	1.04
N fixed	0.699	1.04	0.613	0.759	0.852	0.882	1.42	1.11	0.917	0.976
P fixed	0.506	0.653	1.5	1.07	1.63	0.553	1.25	0.665	0.895	0.934
Q fixed	0.914	0.677	0.631	0.824	0.841	0.578	0.946	0.85	1	0.909
R fixed	0.538	0.612	0.59	0.758	0.678	0.512	0.689	0.78	0.725	0.868
S fixed	1.1	0.804	0.713	0.849	1.07	0.577	1.02	0.742	0.785	0.802
T fixed	0.879	0.815	0.795	0.815	1.21	0.76	0.765	0.702	0.724	0.808
V fixed	1.27	0.965	1.61	0.933	0.868	0.964	0.882	0.719	0.831	0.884
W fixed	0.911	1.52	1.18	2.19	1.07	0.579	0.833	1.05	1.27	1.07
pThr fixed	5.07	4.12	0.915	1.1	1.89	7.51	2.09	1.88	1.74	1.39
pTyr fixed	3.81	12.2	1.18	1.35	1.58	1.35	1.33	1.76	2.01	1.55
